Target: 人肿瘤坏死因子-α (hTNF-α) (human, UniProt P01375 77-233)
Assay: cell-based or functional assay

Chain of 人肿瘤坏死因子-α (hTNF-α) (P01375 77-233 limits assumed): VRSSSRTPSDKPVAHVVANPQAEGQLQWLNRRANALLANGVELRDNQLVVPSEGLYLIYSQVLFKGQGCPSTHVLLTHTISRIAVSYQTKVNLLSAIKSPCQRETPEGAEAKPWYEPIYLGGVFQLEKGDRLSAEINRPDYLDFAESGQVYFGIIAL

B1: 全人源抗hTNF-α单链抗体F6 (scFv, V domains shown)
VH: QVQLLQSAAEVKKPGESLKISCKGSGYSFTSYWIGWVRQMPGKGLEWMGIIYPGDSDTRYSPSFQGQVTISADKSISTAYLQWSSLKASDTAVYYCARFCSPWGQGTLVTV
VL: LQSVLTQPPSVSEAPRQRVTISCSGSSSNIGNNAVNWYQQLPGKAPKLLIYYDDLLPSGVSDRFSGSKSGTSASLAISGLQSEDEADYYCAAWDDSLCVFGGGTKLTVLG
对TNF-α诱导的L929细胞毒性的抑制作用 (L929 cytotoxicity neutralisation, MTT) IC50: ~0.015 µM
